Data published in publication PMC4186791, “The Intrinsically Disordered Regions of the Drosophila melanogaster Hox Protein Ultrabithorax Select Interacting Proteins Based on Partner Topology” (PLoS ONE, 2014).

B1: Dishevelled (natural protein, Drosophila melanogaster, UniProt P51140 1-623, looked up)
chain: MDADRGGGQETKVIYHIDDETTPYLVKIPIPSAQVTLRDFKLVLNKQNNNYKYFFKSMDADFGVVKEEIADDSTILPCFNGRVVSWLVSADGTNQSDNCSELPTSECELGMGLTNRKLQQQQQQHQQQQQQQQQQHQQQQQQQQQQVQPVQLAQQQQQQVLHHQKMMGNPLLQPPPLTYQSASVLSSDLDSTSLFGTESELTLDRDMTDYSSVQRLQVRKKPQRRKKRAPSMSRTSSYSSITDSTMSLNIITVSINMEAVNFLGISIVGQSNRGGDGGIYVGSIMKGGAVALDGRIEPGDMILQVNDVNFENMTNDEAVRVLREVVQKPGPIKLVVAKCWDPNPKGYFTIPRTEPVRPIDPGAWVAHTQALTSHDSIIADIAEPIKERLDQNNLEEIVKAMTKPDSGLEIRDRMWLKITIPNAFIGADAVNWVLENVEDVQDRREARRIVSAMLRSNYIKHTVNKLTFSEQCYYVVNEERNPNLLGRGHLHPHQLPHGHGGHALSHADTESITSDIGPLPNPPIYMPYSATYNPSHGYQPIQYGIAERHISSGSSSSDVLTSKDISASQSDITSVIHQANQLTIAAHGSNKSSGSSNRGGGGGGGGGGNNTNDQDVSVFNYVL
notes: Dishevelled (Dsh), Drosophila melanogaster; also called Dsh; source: yeast two-hybrid fusion (pB42, S. cerevisiae EGY48)
B2: 14-3-3ε (natural protein, Drosophila melanogaster, UniProt P92177 1-262, looked up)
chain: MTERENNVYKAKLAEQAERYDEMVEAMKKVASMDVELTVEERNLLSVAYKNVIGARRASWRIITSIEQKEENKGAEEKLEMIKTYRGQVEKELRDICSDILNVLEKHLIPCATSGESKVFYYKMKGDYHRYLAEFATGSDRKDAAENSLIAYKAASDIAMNDLPPTHPIRLGLALNFSVFYYEILNSPDRACRLAKAAFDDAIAELDTLSEESYKDSTLIMQLLRDNLTLWTSDMQAEEVDPNAGDGEPKEQIQDVEDQDVS
notes: 14-3-3ε, Drosophila melanogaster; source: yeast two-hybrid fusion (pB42, S. cerevisiae EGY48)
B3: Ribosomal protein L22 (natural protein)
chain: not shown
notes: Ribosomal protein L22 (RpL22), Drosophila melanogaster; also called RpL22; source: yeast two-hybrid fusion (pB42, S. cerevisiae EGY48)

Target: T1, UbxIb Δ103–216 (Drosophila melanogaster, UniProt P83949 1-389, Δ103-216)
T1 construct: source: yeast two-hybrid fusion (pLexA, S. cerevisiae EGY48)
Test: two-hybrid; LexA-Ubx variant (pLexA) and B42-partner (pB42) co-transformed into S. cerevisiae EGY48 carrying p8op-LacZ; blue/white colonies on X-gal and liquid β-galactosidase (ONPG) assay after galactose induction at 30°C, reported in Miller units
Conditions: partners not purified

T1 sequence (P83949 other isoform, or with tags, fused parts or gaps Δ103-216 | Δ103-216 | mutant): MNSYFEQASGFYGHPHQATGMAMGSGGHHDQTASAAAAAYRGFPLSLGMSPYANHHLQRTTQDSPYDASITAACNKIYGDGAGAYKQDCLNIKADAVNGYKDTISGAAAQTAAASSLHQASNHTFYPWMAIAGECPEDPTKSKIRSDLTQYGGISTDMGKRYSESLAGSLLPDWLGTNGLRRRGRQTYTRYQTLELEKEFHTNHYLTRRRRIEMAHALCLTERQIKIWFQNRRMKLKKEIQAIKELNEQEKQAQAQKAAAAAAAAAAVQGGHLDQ

Binder	percent of reporter signal lost relative to UbxIb Pro4 [%]
B1	≥ 59
B2	≥ 59
B3	≥ 59

Target: T2, UbxIb N103 Pro4 (Drosophila melanogaster, UniProt P83949 1-389, amino acids 2–102 removed (N103) | A226P | Q233P)
T2 construct: Ultrabithorax (Ubx), Drosophila melanogaster, isoform Ib, from which amino acids 2–102 (Region 1) are removed, with the Pro4 mutations; Form is the full-length isoform Ib less the stated deletion; also called UbxIb N103 Pro4 (0, D2,0, D4, S5); source: yeast two-hybrid fusion (pLexA, S. cerevisiae EGY48)
Test: as above
Conditions: partners not purified

T2 sequence (P83949 other isoform, or with tags, fused parts or gaps with the stated changes): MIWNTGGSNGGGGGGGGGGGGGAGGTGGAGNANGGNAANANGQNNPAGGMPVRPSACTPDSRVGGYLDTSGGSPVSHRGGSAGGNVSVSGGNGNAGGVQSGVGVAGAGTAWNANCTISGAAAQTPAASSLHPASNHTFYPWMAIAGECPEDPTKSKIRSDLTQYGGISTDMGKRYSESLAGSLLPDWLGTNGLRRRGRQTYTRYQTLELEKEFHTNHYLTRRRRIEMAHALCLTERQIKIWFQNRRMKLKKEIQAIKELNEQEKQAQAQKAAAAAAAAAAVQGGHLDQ

Binder	percent of reporter signal lost relative to UbxIb Pro4 [%]
B1	≥ 59
B2	≥ 59
B3	≥ 59
